Data on 4 molecules can be found in patent publication US20230331828A1 (published 2023).

Numbering of substitutions follows the chain as printed.

For assay [1], the target named is aggregated Aβ42 (heterogeneous Aβ 42 aggregate mixture). Description: competition ELISA; FIG 5A; competition with HBP biotin. On the technique in general: In an ELISA, binding on a coated surface is turned into a signal by an enzyme label.
For assay [2] the target is unchanged. Description: competition ELISA; FIG 20A.
For assay [3] the target is unchanged. Put plainly: competition ELISA; FIG 20B.
Assay [4] has the same target. Put plainly: competition ELISA; FIG 5B; competition with HBP biotin.

aggregated Aβ42 (heterogeneous Aβ 42 aggregate mixture), sequence (P05067 672-713): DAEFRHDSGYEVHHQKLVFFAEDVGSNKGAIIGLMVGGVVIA

B1: h2731 (antibody, V domains shown)
VH: EVQLLESGGGLVQPGGSLRLSCAASGFTFSNYGMSWVRQAPGKGLEWVASIRSGSGRTYYSDNVKGRFTISRDNSKNTLYLQMNSLRAEDTAVYYCVRYDHYSGSSDYWGQGTLVTVSS
VL: DVVMTQSPLSLPVTLGEPASISCKSSQSLLDYDGKTYLNWLLQKPGQSPQRLIYRVTNRDTGVPDRFSGSGSGTDFTLKISRVEAEDVGVYYCWQGTHFPRSFGQGTKVEIK
As to B1, the IC50 (in general, the midpoint of a concentration-inhibition curve) was determined as 4.76 µg/mL in assay [1] and 5 µg/mL in assay [2].

B2: h2931 (antibody, V domains shown)
VH: B1 VH with Y32F, I51V, S103T, S105T
VL: B1 VL
As to B2, the IC50 in assay [1] was found to be 6.27 µg/mL.

B3: h2726 (antibody, V domains shown)
VH: B1 VH
VL: B1 VL with L15P, R55K, T57S, T61S, S102T
For B3, the IC50 in assay [3] was 9 µg/mL; in assay [4], 8.41 µg/mL.

B4: h2831 (antibody, V domains shown)
VH: B1 VH with Y32F, I51V, S105T
VL: B1 VL
With B4, the IC50 in assay [3] is 9.9 µg/mL; in assay [4] it was 9.02 µg/mL.
